In assay [1] the target is T1, CD79b on the surface of B-cell non-Hodgkin's lymphoma cells (human, UniProt P40259 29-229).
T1 construct: whole, on cells; Endogenous CD79b of the cell lines; on cells it stands in the B cell receptor complex with CD79a; also called CD79b on Ramos cells; CD79b on BJAB cells
T1 sequence (looked up): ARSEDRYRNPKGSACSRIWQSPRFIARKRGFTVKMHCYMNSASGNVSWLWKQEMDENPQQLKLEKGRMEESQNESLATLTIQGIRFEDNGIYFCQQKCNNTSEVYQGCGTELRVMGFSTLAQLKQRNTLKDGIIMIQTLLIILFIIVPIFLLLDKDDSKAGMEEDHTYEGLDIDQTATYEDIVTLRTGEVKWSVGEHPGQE
The assay can be described thus: flow cytometry on BJAB cells, goat anti-human IgG PE. Here is the method: (§1) The binding ability of the CD79b/CD3 bispecific antibodies for CD79b-positive B-cell non-Hodgkin's lymphoma cell lines was detected by flow cytometry.
(§2) BJAB (AddexBio, USA, Cat #C0003016) and WSU-DLCL2 (Nanjing Kebai Biotechnology Co., Ltd., Cat #CBP60273) were cultured and passaged according to the conventional procedures. Cells were counted after centrifugation and resuspension, adjusted to a density of 4×10⁶ cells/mL, poured into a loading tank, and seeded to a 96-well plate at 50 μL/well using a multichannel pipettor. 50 μL of the antibody sample diluted in gradient was added to the 50 μL of cells in each well, and the mixture was then incubated in an incubator at 5% CO₂ and 37° C. for 30 min. The mixture was centrifuged at 400 g for 5 min, then 200 μL of PBS was added, and the resulting mixture was centrifuged at 400 g for 5 min. This procedure was repeated 3 times. Goat anti-human IgG PE (1:200) was added, and the mixture was incubated for 30 min in the dark at room temperature. The mixture was washed with 200 μL of PBS twice, centrifuged, and then resuspended in 100 μL of PBS, and the values were read using a flow cytometer. The values were fitted to obtain a curve and EC₅₀ values were calculated.
On the technique in general: A flow cytometer gives signals particle by particle.

Assay [2] concerns the target T1, CD79b on the surface of B-cell …. The assay can be described thus: flow cytometry on WSU-DLCL2 cells, goat anti-human IgG PE. Here is the method:
as §1, §2

For assay [3], the target named is T2, human CD79b-his (Sino biological) (human, UniProt P40259 29-159).
T2 construct: Amine-coupled to the Biacore chip (about 50 RU); not shown: His tag
T2 sequence (looked up): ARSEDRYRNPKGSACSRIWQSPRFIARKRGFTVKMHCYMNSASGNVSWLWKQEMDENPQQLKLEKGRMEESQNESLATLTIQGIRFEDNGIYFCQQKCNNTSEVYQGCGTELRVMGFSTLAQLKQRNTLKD
The assay can be described thus: SPR (Biacore T200), CD79b-His coupled to chip, antibody injected. Here is the method: (§3) The binding kinetics of exemplary anti-CD79b/CD3 antibodies of the present invention for human CD79b, human CD3, and cynomolgus monkey CD3 were determined using surface plasmon resonance (Biacore T200). (1) Affinity assay of antibodies for human CD79b-his (Sino biological): 50 mM N-hydroxysuccinimide (NHS) and 200 mM 1-ethyl-3-(3-dimethylaminopropyl) carbodiimide hydrochloride (EDC) were freshly mixed and activated for 420 s at a flow rate of 10 μL/min. Human CD79b-His antigen was then diluted in 10 mM Acetate (pH 5.0), and after dilution to a concentration of 1 μg/mL, the antigen solution was subjected to coupling and the value was approximately 50 RU. Then 1 M ethanolamine was injected at a flow rate of 10 μL/min for 420 s to block the remaining activation sites. The buffer used in the experiment was HBS-EP+ solution at pH 7.4, and under a high performance mode, the antibodies obtained after 2-fold gradient dilution (0-80 nM) were each injected, according to an ascending order based on concentrations, into the channels 1, 2, 3 and 4 of the chip at a flow rate of 30 μL/min, wherein one cycle was used for determination of one concentration, the binding time was 180 s, and the dissociation time was 600 s. (2) Affinity assay of antibodies for human CD3E & CD3G-biotin (Sino biological) and monkey CD3E & CD3G-biotin (Sino biological): 50 mM NHS and 200 mM EDC were freshly mixed and activated for 420 s at a flow rate of 10 μL/min. Streptavidin (Thermo Fisher scientific) protein was then diluted in 10 mM Acetate (pH 4.5) and after dilution to a concentration of 10 μg/mL, the antigen solution was subjected to coupling and the value was approximately 3000 RU. Then 1 M ethanolamine was injected at a flow rate of 10 μL/min for 420 s to block the remaining activation sites. Human CD3E & CD3G-biotin and monkey CD3E & CD3G-biotin proteins were each immobilized on the chip channels coupled with Streptavidin protein. The antibodies (0-16 nM or 0-40 nM or 0-200 nM) obtained after 2-fold gradient dilution were each injected, according to an ascending order based on concentrations, into the channels 1, 2, 3 and 4 of the chip at a flow rate of 30 μL/min, wherein one cycle was used for determination of one concentration, the binding time was 180 s, and the dissociation time was 300 s.

Assay [4] addresses T3, human CD3E & CD3G-biotin (Sino biological) (human, UniProt P07766 23-126; P09693 23-116, limits assumed).
T3 construct: also called Human CD3E&G
Put plainly: SPR (Biacore T200), biotinylated CD3E&CD3G on streptavidin chip, antibody injected. Here is the method: as §3
A general note: SPR reads the build-up and loss of mass on a sensor chip optically.

Assay [5] concerns the target T4, monkey CD3E & CD3G-biotin (Sino biological) (cynomolgus monkey, UniProt Q95LI5 22-117; Q95LI7 23-113, limits assumed).
T4 construct: also called Cyno CD3E&G; monkey CD3E&G
T4 sequence (looked up) 1: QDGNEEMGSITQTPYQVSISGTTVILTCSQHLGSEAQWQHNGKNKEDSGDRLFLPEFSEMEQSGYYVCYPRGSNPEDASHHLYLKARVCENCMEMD
T4 sequence (looked up) 2: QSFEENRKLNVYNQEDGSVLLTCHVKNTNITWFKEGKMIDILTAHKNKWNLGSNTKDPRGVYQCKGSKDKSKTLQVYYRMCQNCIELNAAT
The assay can be described thus: SPR (Biacore T200), biotinylated monkey CD3E&CD3G on streptavidin chip, antibody injected. Here is the method: as §3

The target of assay [6] is T1, CD79b on the surface of B-cell …. Put plainly: flow cytometry on BJAB cells, goat anti-human IgG PE. The procedure: as §2, with “Ramos (ATCC, Cat #CRL-1596) and BJAB” for “BJAB”, “#C0003016)” for “#C0003016) and WSU-DLCL2 (Nanjing Kebai Biotechnology Co., Ltd., Cat #CBP60273)”, “were” for “were cultured and”
(§4) The binding of the humanized antibodies to Ramos and BJAB cells was detected by flow cytometry. The assay was the same as in Example 4. The binding of the humanized antibodies to CD79b on the surface of Ramos cells is shown in FIG. 3; the binding of the humanized antibodies to CD79b on the surface of BJAB cells is shown in FIG. 4.
The source holds these as a separate data set.

Assay [7] shares this target. The assay can be described thus: flow cytometry on Ramos cells, goat anti-human IgG PE. Here is the method:
as §2, with “Ramos (ATCC, Cat #CRL-1596) and BJAB” for “BJAB”, “#C0003016)” for “#C0003016) and WSU-DLCL2 (Nanjing Kebai Biotechnology Co., Ltd., Cat #CBP60273)”, “were” for “were cultured and”
as §4

The target in assay [8] is T5, human CD79b (recombinant antigen in the ForteBio assays) (human, UniProt P40259 29-159).
T5 construct: the immunogen was CD79b protein from Sino, Cat #29750-H08H; also called huCD79b
T5 sequence (looked up): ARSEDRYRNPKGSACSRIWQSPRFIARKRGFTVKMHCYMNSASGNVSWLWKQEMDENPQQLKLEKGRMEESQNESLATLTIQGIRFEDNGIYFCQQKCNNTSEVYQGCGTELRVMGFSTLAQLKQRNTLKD
The assay can be described thus: BLI (ForteBio), antibody loaded on sensor, antigen in solution. Here is the method:
Briefly, an AMQ (Pall, 1506091) sensor was equilibrated offline in an assay buffer for 30 min and then equilibrated online for 60 s to establish a baseline. The purified antibodies obtained as described above were each loaded online onto an AHQ sensor (ForteBio) for the ForteBio affinity assay. The sensor with the loaded antibody was then exposed to antigen CD79b before transferring the sensor to the assay buffer to measure the dissociation rate. The KD values were analyzed using ForteBio analysis software.
The equilibrium dissociation constants (KD) for the binding of the humanized antibodies of the present invention to human CD79b were determined by ForteBio.
Background: In BLI a coated tip is dipped into the sample, and binding shifts an interference pattern.

T3 sequence (P07766 23-126 limits assumed, chain 1 of 2): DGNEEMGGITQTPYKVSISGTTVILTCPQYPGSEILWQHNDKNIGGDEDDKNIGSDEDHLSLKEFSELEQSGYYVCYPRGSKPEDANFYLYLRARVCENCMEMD
T3 sequence (P09693 23-116 limits assumed, chain 2 of 2): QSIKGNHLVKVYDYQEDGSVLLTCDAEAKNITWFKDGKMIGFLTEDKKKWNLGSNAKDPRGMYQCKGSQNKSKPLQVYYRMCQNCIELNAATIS

B1: 11G10.9.p1/sp34.24 (bispecific antibody, human IgG1, kappa, lambda, L234A L235A)
heavy 1: not shown
light 1: DIVMTQTPLSLSVTPGQPASISCKSSQSLLDSEGKTYLNWLLQKPGQSPQSLIYLVSKLDSGVPDRFSGSGSGTDFTLKISRVEAEDVGVYYCWQGTHFPLTFGGGTKVEIKRTVAAPSVFIFPPSDEQLKSGTASVVCLLNNFYPREAKVQWKVDNALQSGNSQESVTEQDSKDSTYSLSSTLTLSKADYEKHKVYACEVTHQGLSSPVTKSFNRGEC
heavy 2: not shown
light 2: QAVVTQEPSLTVSPGGTVTLTCRSSTGAVTTSNYANWVQQKPGQAPRGLIGGTNKRAPGVPARFSGSLLGDKAALTLLGAQPEDEAEYYCALWYSNLWVFGQGTKLTVLGQPKAAPSVTLFPPSSEELQANKATLVCLISDFYPGAVTVAWKADSSPVKAGVETTTPSKQSNNKYAASSYLSLTPEQWKSHRSYSCQVTHEGSTVEKTVAPTECS
notes: also called 11G10.9.p1 x HzSP34.24
Turning to B1, the results for the concentration giving a half-maximal response (EC50 (read off the curve)) in assay [1] and in assay [2] were about 20 nM and about 30 nM, respectively. Moreover, the Kd in assay [3] stood at 2.16 nM; in assay [4], 6.25 nM; in assay [5] it was 10.7 nM. The koff in assay [3] was 0.00176 s⁻¹; in assay [4], 0.00531 s⁻¹; in assay [5] it was 0.0061 s⁻¹. Besides, the kon in assay [3] was determined as 815000 M⁻¹ s⁻¹; in assay [4], 851000 M⁻¹ s⁻¹; in assay [5] it was 570000 M⁻¹ s⁻¹.

B2: CD79b.A7v14b/38E4v1 (bispecific antibody, human IgG1, kappa, L234A L235A)
heavy 1: not shown
light 1: DIVMTQTPLSLPVTPGQPASISCKSSQSLLDSDGKTYLNWLLQKPGQSPQSLIYLVSKLDSGVPDRFSGSGSGTDFTLKISRVEAEDVGVYYCWQGTHFPQTFGQGTKVEIKRTVAAPSVFIFPPSDEQLKSGTASVVCLLNNFYPREAKVQWKVDNALQSGNSQESVTEQDSKDSTYSLSSTLTLSKADYEKHKVYACEVTHQGLSSPVTKSFNRGEC
heavy 2: not shown
light 2: not shown
notes: also called CD79b.A7v14b x 38E4v1
As for B2, the “EC50 (read off the curve)” value in assay [1] was about 10 nM; in assay [2], about 20 nM. Besides, the Kd in assay [3] was 8.66 nM; in assay [4], 1 nM; in assay [5], 1.52 nM. In addition, the koff in assay [3] is 0.00701 s⁻¹; in assay [4], 0.00296 s⁻¹; in assay [5], 0.00285 s⁻¹. Also, the kon was 809000 M⁻¹ s⁻¹ in assay [3], 2.96e+06 M⁻¹ s⁻¹ in assay [4] and 1.88e+06 M⁻¹ s⁻¹ in assay [5].

B3: hz38D9B3.11 (antibody, V domains shown)
VH: QVQLVQSGSELKKPGASVKVSCKASGYTFTDYSMHWVRQAPGQGLEWMGWINTETGEPSYADDFKGRFVFSLDTSVSTAYLQISSLKAEDTAVYYCYYGPYWGQGTLVTVSS
VL: EIVLTQSPATLSLSPGERATLSCKASQSVDHDVDSYMDWYQQKPGQAPRLLIYSASNLESGIPARFSGSGSGTDFTLTISSLEPEDFAVYYCQQINEYPYTFGGGTKVEIK
notes: Humanized monospecific anti-CD79b antibody
Take B3: the “EC50 (read off the curve)” value in assay [6] and in assay [7] was about 2 nM in each case. Also, the Kd in assay [8] worked out at 0.274 nM.

B4: hz34F1.14 (antibody, V domains shown)
VH: QVQLVQSGAEVKKPGASVKVSCKASGYSFTTYWMNWVRQAPGQGLTWMGMIDPSDSETHYNHLFKDRVTMTVDKSTSTAYMELSSLRSEDTAVYYCTRAIGYWGQGTLVTVSS
VL: DVVMTQSPLSLPVTLGQPASISCKSSLSLLDSEGKTYLNWFQQRPGQSPRPLISLVSKLDSGVPDRFSGSGSGTDFTLKISRVEAEDVGVYYCWQGTHFPLTFGGGTKVEIK
Regarding B4, the “EC50 (read off the curve)” value in assay [6] was about 10 nM; in assay [7], about 20 nM. In addition, in assay [8], the Kd amounted to 2.53 nM.

B5: hz11G10.9.p1 (antibody, V domains shown)
VH: QVQLVQSGAEVKKPGASVKVSCKASGYTFTDYWVNWVRQAPGQGLEWMGMIDPSDSETHYNQMFNDRVTMTVDTSTSTVYMELSSLRSEDTAVYYCTRSNYYWGQGTLVTVSS
VL: DIVMTQTPLSLSVTPGQPASISCKSSQSLLDSEGKTYLNWLLQKPGQSPQSLIYLVSKLDSGVPDRFSGSGSGTDFTLKISRVEAEDVGVYYCWQGTHFPLTFGGGTKVEIK
notes: Humanized monospecific anti-CD79b antibody; also called 11G10.9.01
Take B5: the “EC50 (read off the curve)” value in assay [6] is about 4 nM; in assay [7], about 5 nM. Further, the dissociation constant Kd in assay [8] was 1.35 nM.

In general, EC50 (read off the curve) refers to the concentration needed to bring the measured effect to its halfway point. For orientation: Kd means the free concentration of one partner at which half of the binding sites on the other are occupied at equilibrium, for simple one-to-one binding. Usually koff stands for the first-order rate constant of dissociation. What is called kon is the second-order rate constant of association.
